In the experiment the target is purified mTOR protein (Origene) (human, UniProt P42345 1-2549). The experiment is described as follows: co-IP.

B1: purified ETV7 protein (Origene) (natural protein)
chain: MQEGELAISPISPVAAMPPLGTHVQARCEAQINLLGEGGICKLPGRLRIQPALWSREDVLHWLRWAEQEYSLPCTAEHGFEMNGRALCILTKDDFRHRAPSSGDVLYELLQYIKTQRRALVCGPFFGGIFRLKTPTQHSPVPPEEVTGPSQMDTRRGHLLQPPDPGLTSNFGHLDDPGLARWTPGKEESLNLCHCAELGCRTQGVCSFPAMPQAPIDGRIADCRLLWDYVYQLLLDTRYEPYIKWEDKDAKIFRVVDPNGLARLWGNHKNRVNMTYEKMSRALRHYYKLNIIKKEPGQKLLFRFLKTPGKMVQDKHSHLEPLESQEQDRIEFKDKRPEISP
B1: the binding result is recorded as “binds”.

Source of the values: paper PMC6156121 (Science Advances, 2018).
